The target in assay [1] is T1, His-tagged, full-length PCSK9 (human, UniProt Q8NBP7 31-692).
T1 construct: The secreted protein is autocleaved into a prodomain and a catalytic/Cys-rich chain that starts at S153; also called His-PCSK9
Nature of the assay: TR-FRET competition; His-PCSK9, competitor EGF(A)-Fc.
Procedure: (§1) Signal generation in the PCSK9 binding assays was dependent upon the binding interaction to bring into close proximity the His-tag on the PCSK9 and the Fc-tag on the ligand. Anti-His-APC was bound to the His-tag, and anti-Fc-europium was bound to the Fc-tag.
(§2) Compounds were solubilized and dilutions were prepared in DMSO. […] The plate was centrifuged to mix the well contents and allowed to incubate for 30 min. […] The normalized TR-FRET ratios were plotted as a function of the compound concentrations, and the IC₅₀ values were determined using a 4-parameter logistic regression.

For assay [2], the target named is T2, His-tagged PCSK9Δhelix (human, UniProt Q8NBP7 31-152; Q8NBP7 168-692).
T2 construct: Construct M1-Q692 with engineered TEV site, cut by TEV protease; new N-terminus of the catalytic domain is S-A168; also called His-PCSK9Δhelix
Nature of the assay: TR-FRET competition; His-PCSK9Δhelix, competitor Ab20. On the technique in general: TR-FRET usually uses a lanthanide donor and a delayed reading to cut background.
Procedure: as §1, §2

Ends that are not written are not given here. * marks the point of attachment. Pentanoyl = CCCCC(=O)* Some results are limits rather than exact numbers.

T1 sequence (Q8NBP7 other isoform, or with tags, fused parts or gaps limits assumed): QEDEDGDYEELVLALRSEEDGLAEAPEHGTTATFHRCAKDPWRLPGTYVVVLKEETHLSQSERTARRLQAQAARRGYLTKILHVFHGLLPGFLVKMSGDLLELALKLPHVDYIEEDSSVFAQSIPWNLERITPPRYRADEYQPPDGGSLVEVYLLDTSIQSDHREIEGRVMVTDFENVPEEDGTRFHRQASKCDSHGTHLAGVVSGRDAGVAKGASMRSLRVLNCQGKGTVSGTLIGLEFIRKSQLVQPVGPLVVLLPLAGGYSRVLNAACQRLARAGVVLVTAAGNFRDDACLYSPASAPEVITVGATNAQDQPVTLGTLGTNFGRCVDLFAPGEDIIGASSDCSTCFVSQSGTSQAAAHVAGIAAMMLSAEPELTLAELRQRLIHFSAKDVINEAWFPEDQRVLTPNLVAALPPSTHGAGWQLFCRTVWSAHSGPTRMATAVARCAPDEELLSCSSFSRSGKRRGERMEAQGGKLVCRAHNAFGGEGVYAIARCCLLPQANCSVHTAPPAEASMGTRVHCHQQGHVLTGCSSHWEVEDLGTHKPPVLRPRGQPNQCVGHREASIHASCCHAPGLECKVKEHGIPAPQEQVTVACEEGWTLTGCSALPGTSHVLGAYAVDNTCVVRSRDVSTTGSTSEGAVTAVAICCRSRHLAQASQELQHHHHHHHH
T2 sequence (Q8NBP7 31-152, stated change not applied, chain 1 of 2): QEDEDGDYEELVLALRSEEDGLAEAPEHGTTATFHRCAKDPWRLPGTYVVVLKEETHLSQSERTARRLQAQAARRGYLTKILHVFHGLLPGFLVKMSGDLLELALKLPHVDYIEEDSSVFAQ
T2 sequence (Q8NBP7 other isoform, or with tags, fused parts or gaps mutant, chain 2 of 2): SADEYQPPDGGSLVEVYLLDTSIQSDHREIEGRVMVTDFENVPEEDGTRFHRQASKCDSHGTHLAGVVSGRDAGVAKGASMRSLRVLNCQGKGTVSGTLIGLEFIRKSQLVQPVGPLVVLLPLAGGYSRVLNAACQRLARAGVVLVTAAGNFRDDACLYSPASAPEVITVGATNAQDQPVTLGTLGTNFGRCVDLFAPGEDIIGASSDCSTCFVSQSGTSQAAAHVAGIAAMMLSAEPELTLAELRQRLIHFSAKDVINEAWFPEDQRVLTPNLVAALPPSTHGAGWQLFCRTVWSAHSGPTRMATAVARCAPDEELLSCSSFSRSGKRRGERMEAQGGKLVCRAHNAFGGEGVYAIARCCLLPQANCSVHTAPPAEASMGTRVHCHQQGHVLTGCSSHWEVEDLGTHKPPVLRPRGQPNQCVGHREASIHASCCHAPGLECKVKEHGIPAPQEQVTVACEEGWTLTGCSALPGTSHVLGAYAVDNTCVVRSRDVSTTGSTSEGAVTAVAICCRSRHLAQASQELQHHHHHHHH

B1: Compound 123 (peptide)
peptide: {n‑PrC(O)}-WNLVRIGLLR-NH2
As to B1, the IC50 in assay [1] was ≥ 50 µM; in assay [2] it was 18 µM.

B2: Compound 176 (peptide)
peptide: Pentanoyl-WNLVRIGLTR
Consider B2, for which the IC50 in assay [1] was ≥ 50 µM; in assay [2], 18 µM.

B3: Compound 183 (peptide)
peptide: WNLVRIGTLR
modifications: also: further groups not given here
notes: Structure printed only as a drawing
B3: the figures for the IC50 in assay [1] and in assay [2] were 18 µM and 2.5 µM, respectively.

B4: Compound 173 (peptide)
peptide: WNLVRIGLTR
modifications: also: further groups not given here
notes: as for B3
In the case of B4, the results for the concentration for half-maximal inhibition (IC50) in assay [1] and in assay [2] were ≥ 50 µM and 9.8 µM, respectively.

B5: Compound 189 (peptide)
peptide: WNLVRIGLTR
modifications: also: further groups not given here
notes: as for B3
On to B5, for which the concentration for half-maximal inhibition (IC50) in assay [1] turned out to be 38 µM; in assay [2], 12 µM.

B6: Compound 164 (peptide)
peptide: WNLVRIGLTR
modifications: also: further groups not given here
notes: as for B3
Consider B6, for which the results for the half-maximal inhibitory concentration (IC50) in assay [1] and in assay [2] were ≥ 50 µM and 12 µM, respectively.

B7: Compound 171 (peptide)
peptide: WNLVRIGLTR
modifications: also: further groups not given here
notes: as for B3
As for B7, the values for the half-maximal inhibitory concentration (IC50) in assay [1] and in assay [2] were ≥ 50 µM and 7.7 µM, respectively.

B8: Compound 168 (peptide)
peptide: WNLVRIGLTR
modifications: also: further groups not given here
notes: as for B3
Consider B8, for which the half-maximal inhibitory concentration (IC50) in assay [1] was ≥ 50 µM; in assay [2], 7.8 µM.

B9: Compound 161 (peptide)
peptide: WNLVRIGLTR
modifications: also: further groups not given here
notes: as for B3
B9: the figures for the IC50 in assay [1] and in assay [2] were ≥ 50 µM and 5 µM, respectively.

B10: Compound 184 (peptide)
peptide: WNLVRIGTLR
modifications: also: further groups not given here
notes: as for B3
In the case of B10, the concentration for half-maximal inhibition (IC50) worked out at 19 µM in assay [1] and 12 µM in assay [2].

B11: Compound 185 (peptide)
peptide: WNLVRIGTLR
modifications: also: further groups not given here
notes: as for B3
Consider B11, for which the IC50 in assay [1] is 5.7 µM; in assay [2], 0.39 µM.

B12: Compound 169 (peptide)
peptide: WNLVRIGLTR
modifications: also: further groups not given here
notes: as for B3
B12: the IC50 in assay [1] was ≥ 50 µM; in assay [2] it was 6.8 µM.

B13: Compound 179 (peptide)
peptide: Pentanoyl-WNLVRIGLGR-NH2
SMILES: CCCCC(=O)N[C@@H](Cc1c[nH]c2ccccc12)C(=O)N[C@@H](CC(N)=O)C(=O)N[C@@H](CC(C)C)C(=O)N[C@H](C(=O)N[C@@H](CCCNC(=N)N)C(=O)N[C@H](C(=O)NCC(=O)N[C@@H](CC(C)C)C(=O)NCC(=O)N[C@@H](CCCNC(=N)N)C(N)=O)[C@@H](C)CC)C(C)C
With B13, the results for the IC50 in assay [1] and in assay [2] were ≥ 50 µM and 11 µM, respectively.

B14: Compound 181 (peptide)
peptide: Pentanoyl-WNLVRIGLSR-NH2
SMILES: CCCCC(=O)N[C@@H](Cc1c[nH]c2ccccc12)C(=O)N[C@@H](CC(N)=O)C(=O)N[C@@H](CC(C)C)C(=O)N[C@H](C(=O)N[C@@H](CCCNC(=N)N)C(=O)N[C@H](C(=O)NCC(=O)N[C@@H](CC(C)C)C(=O)N[C@@H](CO)C(=O)N[C@@H](CCCNC(=N)N)C(N)=O)[C@@H](C)CC)C(C)C
As for B14, the half-maximal inhibitory concentration (IC50) in assay [1] is ≥ 50 µM; in assay [2], 8.9 µM.

B15: Compound 162 (peptide)
peptide: WNLVRIGLTR
modifications: also: further groups not given here
notes: as for B3
For B15, the figures for the IC50 in assay [1] and in assay [2] were ≥ 50 µM and 37 µM, respectively.

B16: Compound 178 (peptide)
peptide: Pentanoyl-WNLVRIGLDR-NH2
SMILES: CCCCC(=O)N[C@@H](Cc1c[nH]c2ccccc12)C(=O)N[C@@H](CC(N)=O)C(=O)N[C@@H](CC(C)C)C(=O)N[C@H](C(=O)N[C@@H](CCCNC(=N)N)C(=O)N[C@H](C(=O)NCC(=O)N[C@@H](CC(C)C)C(=O)N[C@@H](CC(=O)O)C(=O)N[C@@H](CCCNC(=N)N)C(N)=O)[C@@H](C)CC)C(C)C
Regarding B16, the IC50 in assay [1] is ≥ 50 µM; in assay [2], 18 µM.

B17: Compound 159 (peptide)
peptide: Pentanoyl-WNLKRIGLLR-NH2
SMILES: CCCCC(=O)N[C@@H](Cc1c[nH]c2ccccc12)C(=O)N[C@@H](CC(N)=O)C(=O)N[C@@H](CC(C)C)C(=O)N[C@@H](CCCCN)C(=O)N[C@@H](CCCNC(=N)N)C(=O)N[C@H](C(=O)NCC(=O)N[C@@H](CC(C)C)C(=O)N[C@@H](CC(C)C)C(=O)N[C@@H](CCCNC(=N)N)C(N)=O)[C@@H](C)CC
In the case of B17, the IC50 is ≥ 50 µM in assay [1] and 6.6 µM in assay [2].

B18: Compound 163 (peptide)
peptide: WNLVRIGLTR
modifications: also: further groups not given here
notes: as for B3
For B18, the values for the concentration for half-maximal inhibition (IC50) in assay [1] and in assay [2] were ≥ 50 µM and 37 µM, respectively.

B19: Compound 188 (peptide)
peptide: WNLVRIGLTR
modifications: also: further groups not given here
notes: as for B3
Consider B19, for which the values for the IC50 in assay [1] and in assay [2] were 22 µM and 7.6 µM, respectively.

B20: Compound 166 (peptide)
peptide: WNLVRIGLTR
modifications: also: further groups not given here
notes: as for B3
Take B20: the 50% inhibitory concentration (IC50) in assay [1] is ≥ 50 µM; in assay [2] it was 5.9 µM.

B21: Compound 180 (peptide)
peptide: Pentanoyl-WNLVRIGLAR-NH2
SMILES: CCCCC(=O)N[C@@H](Cc1c[nH]c2ccccc12)C(=O)N[C@@H](CC(N)=O)C(=O)N[C@@H](CC(C)C)C(=O)N[C@H](C(=O)N[C@@H](CCCNC(=N)N)C(=O)N[C@H](C(=O)NCC(=O)N[C@@H](CC(C)C)C(=O)N[C@@H](C)C(=O)N[C@@H](CCCNC(=N)N)C(N)=O)[C@@H](C)CC)C(C)C
B21: the half-maximal inhibitory concentration (IC50) in assay [1] is ≥ 50 µM; in assay [2] it was 12 µM.

B22: Compound 190 (peptide)
peptide: WNLVRIGLTR
modifications: also: further groups not given here
notes: as for B3
As for B22, the IC50 in assay [1] is 30 µM; in assay [2], 7 µM.

B23: Compound 165 (peptide)
peptide: WNLVRIGLTR
modifications: also: further groups not given here
notes: as for B3
As to B23, the figures for the IC50 in assay [1] and in assay [2] were ≥ 50 µM and 18 µM, respectively.

B24: Compound 182 (peptide)
peptide: WNLVRIGTLR
modifications: also: further groups not given here
notes: as for B3
As for B24, the IC50 in assay [1] worked out at 14 µM; in assay [2], 4 µM.

B25: Compound 177 (peptide)
peptide: Pentanoyl-WNLVRIGLER-NH2
SMILES: CCCCC(=O)N[C@@H](Cc1c[nH]c2ccccc12)C(=O)N[C@@H](CC(N)=O)C(=O)N[C@@H](CC(C)C)C(=O)N[C@H](C(=O)N[C@@H](CCCNC(=N)N)C(=O)N[C@H](C(=O)NCC(=O)N[C@@H](CC(C)C)C(=O)N[C@@H](CCC(=O)O)C(=O)N[C@@H](CCCNC(=N)N)C(N)=O)[C@@H](C)CC)C(C)C
Consider B25, for which the figures for the half-maximal inhibitory concentration (IC50) in assay [1] and in assay [2] were ≥ 50 µM and 35 µM, respectively.

B26: Compound 172 (peptide)
peptide: WNLVRIGLTR
modifications: also: further groups not given here
notes: as for B3
On to B26, for which the values for the IC50 in assay [1] and in assay [2] were ≥ 50 µM and 8.5 µM, respectively.

B27: Compound 170 (peptide)
peptide: WNLVRIGLTR
modifications: also: further groups not given here
notes: as for B3
Take B27: the half-inhibitory concentration (IC50) in assay [1] is ≥ 50 µM; in assay [2], 3.1 µM.

B28: Compound 167 (peptide)
peptide: WNLVRIGLTR
modifications: also: further groups not given here
notes: as for B3
Take B28: the 50% inhibitory concentration (IC50) in assay [1] is ≥ 50 µM; in assay [2] it was 43 µM.

B29: Compound 126 (peptide)
peptide: WNLVRIGLLR
modifications: also: further groups not given here
notes: as for B3
For B29, the results for the half-maximal inhibitory concentration (IC50) in assay [1] and in assay [2] were ≥ 50 µM and 19 µM, respectively.

B30: Compound 124 (peptide)
peptide: Ac-GLMPWNLVRIGLLR-NH2
Regarding B30, the IC50 is ≥ 50 µM in assay [1] and 3.9 µM in assay [2].

B31: Compound 125 (peptide)
peptide: Ac-GGMPWNLVRIGLLR-NH2
Take B31: the 50% inhibitory concentration (IC50) in assay [1] was ≥ 50 µM; in assay [2], 7 µM.

B32: Compound 129 (peptide)
peptide: WNLVRIGLLR
modifications: also: further groups not given here
notes: as for B3
On to B32, for which the figures for the half-inhibitory concentration (IC50) in assay [1] and in assay [2] were ≥ 50 µM and 23 µM, respectively.

B33: Compound 127 (peptide)
peptide: WNLVRIGLLR
modifications: also: further groups not given here
notes: as for B3
For B33, the figures for the 50% inhibitory concentration (IC50) in assay [1] and in assay [2] were ≥ 50 µM and 29 µM, respectively.

B34: Compound 128 (peptide)
peptide: WNLVRIGLLR
modifications: also: further groups not given here
notes: as for B3
With B34, the values for the IC50 in assay [1] and in assay [2] were ≥ 50 µM and 7.5 µM, respectively.

B35: Compound 122 (peptide)
peptide: Ac-SGDLMPWNLVRIGLLR-NH2
Consider B35, for which, in assay [2], the IC50 stood at 5.6 µM.

The IC50 is the concentration needed to halve the response being measured. Low values mean greater potency, high ones weaker potency.

Source of the values: US20200283478A1 (Genentech, published 2020).
